Where “and” joins values, the source holds several entries; their conditions need not be identical. Equal values may be shown once.
What was measured:
Assay in all cases: SPR, steady state, Fab over captured mutant
shCD131 I368A = target: T1, shCD131 I368A (human, UniProt P32927 17-438)
T1 construct: C-terminal 6xHis
T1 sequence: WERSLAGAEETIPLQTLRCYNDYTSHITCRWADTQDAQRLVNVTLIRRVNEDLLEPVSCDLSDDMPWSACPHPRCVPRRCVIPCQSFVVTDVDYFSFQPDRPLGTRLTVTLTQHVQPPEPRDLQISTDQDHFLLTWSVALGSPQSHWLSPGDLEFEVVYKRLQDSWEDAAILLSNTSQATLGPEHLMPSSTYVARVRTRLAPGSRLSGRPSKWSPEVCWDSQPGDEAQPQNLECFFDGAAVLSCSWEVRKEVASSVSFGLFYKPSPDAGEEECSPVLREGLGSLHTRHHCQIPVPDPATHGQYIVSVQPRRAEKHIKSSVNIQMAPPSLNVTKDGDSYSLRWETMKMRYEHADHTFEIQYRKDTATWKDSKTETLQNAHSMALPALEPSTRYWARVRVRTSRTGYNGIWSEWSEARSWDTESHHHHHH
Procedure: (§1) For some analysis purified Fab was injected over each flow cell for 3 minutes and dissociation was monitored for a further 10 minutes. Regeneration of the surface was performed after each cycle with a 40 second injection of 25 mM glycine, pH 2.0. The analysis was performed with Fabs at several concentrations between 100 and 0.31 nM, with each concentration analyzed twice and in random order. The analysis was performed at a flow rate of 30 μl/min in HBS-EP buffer (10 mM Hepes, 150 mM NaCl, 3 mM EDTA, 0.005% Tween 20, pH 7.4) at 37° C. Responses from spots 2 and 4 of each flow cell, (in which shβc was not captured, but otherwise treated identically), were subtracted from those of spots 1 and 5 respectively to produce reference subtracted data. Reference subtracted responses from a blank injection comprising buffer alone were subtracted from the resultant sensorgrams to produce double referenced data suitable for kinetic analysis. Double-referenced sensorgrams were fitted using non-linear regression to a model describing 1:1 kinetics, including a term for mass transport limitation. The Rₘₐₓ value was fitted locally to account for slight deviations in the level of sCD131 captured, with association rate (kₐ), dissociation rate (kd) and equilibrium dissociation constant (KD) fitted globally.
(§2) Mapping of the shCD131 epitope was performed by measurement of the affinity of Fabs for various alanine point mutants of shCD131 essentially as described above, with the following exceptions. Each shCD131 mutant was captured for 120 seconds at concentrations between 1 and 5 μg/ml. For kinetic analysis, purified recombinant Fabs were injected for 2 minutes, and dissociation was monitored for a further 2 minutes. […] Fab concentrations ranged from 16 μM to 3.9 nM in two-fold dilutions. The assays were conducted at 25° C. All sensorgrams were reference subtracted as described above. For determination of steady-state affinity (KD only), the response at the end of the binding phase was used to fit the data to a single-site binding model. Kinetic parameters were determined as described above.

shCD131 H367A = target: T2, shCD131 H367A (human, UniProt P32927 17-438)
T2 construct: C-terminal 6xHis
T2 sequence: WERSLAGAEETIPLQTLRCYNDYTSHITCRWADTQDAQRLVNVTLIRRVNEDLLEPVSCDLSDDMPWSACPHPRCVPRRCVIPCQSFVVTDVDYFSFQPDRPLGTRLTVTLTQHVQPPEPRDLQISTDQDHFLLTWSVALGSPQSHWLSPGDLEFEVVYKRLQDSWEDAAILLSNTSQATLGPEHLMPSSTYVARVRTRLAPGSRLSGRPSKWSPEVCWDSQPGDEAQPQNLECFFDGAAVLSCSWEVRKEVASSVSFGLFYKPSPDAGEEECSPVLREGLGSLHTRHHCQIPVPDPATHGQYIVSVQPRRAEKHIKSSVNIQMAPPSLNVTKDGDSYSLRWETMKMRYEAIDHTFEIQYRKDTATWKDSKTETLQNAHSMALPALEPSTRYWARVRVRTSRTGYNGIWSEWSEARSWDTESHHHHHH
Procedure: as §1, §2

shCD131 S102A = target: T3, shCD131 S102A (human, UniProt P32927 17-438)
T3 construct: C-terminal 6xHis
T3 sequence: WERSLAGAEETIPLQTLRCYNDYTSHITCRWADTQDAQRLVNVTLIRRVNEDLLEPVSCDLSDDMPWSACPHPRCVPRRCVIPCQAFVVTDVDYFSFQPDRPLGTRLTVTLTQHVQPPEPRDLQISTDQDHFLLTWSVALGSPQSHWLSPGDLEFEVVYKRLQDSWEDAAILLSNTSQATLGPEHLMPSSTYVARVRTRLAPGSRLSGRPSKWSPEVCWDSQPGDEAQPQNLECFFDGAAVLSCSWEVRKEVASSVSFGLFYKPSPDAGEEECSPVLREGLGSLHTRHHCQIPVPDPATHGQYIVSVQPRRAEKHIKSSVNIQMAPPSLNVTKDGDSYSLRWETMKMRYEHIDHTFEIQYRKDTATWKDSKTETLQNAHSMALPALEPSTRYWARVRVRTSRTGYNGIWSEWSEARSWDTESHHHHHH
Procedure: as §1, §2

shCD131 G423A = target: T4, shCD131 G423A (human, UniProt P32927 17-438)
T4 construct: C-terminal 6xHis
T4 sequence: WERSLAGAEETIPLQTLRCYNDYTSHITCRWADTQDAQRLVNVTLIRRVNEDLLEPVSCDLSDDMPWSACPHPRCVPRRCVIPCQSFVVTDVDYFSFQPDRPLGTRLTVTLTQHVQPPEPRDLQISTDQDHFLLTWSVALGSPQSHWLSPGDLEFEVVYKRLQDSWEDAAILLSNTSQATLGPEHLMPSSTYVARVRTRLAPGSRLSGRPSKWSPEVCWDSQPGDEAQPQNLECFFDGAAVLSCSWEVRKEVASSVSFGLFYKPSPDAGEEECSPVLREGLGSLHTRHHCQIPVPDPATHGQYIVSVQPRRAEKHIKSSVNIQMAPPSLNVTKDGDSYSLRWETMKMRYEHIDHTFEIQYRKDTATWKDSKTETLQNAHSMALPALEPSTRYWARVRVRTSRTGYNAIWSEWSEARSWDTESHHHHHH
Procedure: as §1, §2

- Kd (shCD131 I368A): 4.77 µM
- Kd (shCD131 H367A): 10.3 µM and 10.8 µM
- Kd (shCD131 S102A): 0.324 µM
- Kd (shCD131 G423A): 0.197 µM
B1: 9A2 Fab (Fab, V domains shown)
VH: EVQLLESGGGLVQPGGSLRLSCAASGFTFSHYHMLWVRQAPGKGLEWVSSIRSSGGFTYYADSVKGRFTISRDNSKNTLYLQMNSLRAEDTAVYYCARFYDSFFDIWGQGTMVTVSS
VL: DIQMTQSPSSVSASVGDRVTITCRASQGISSWLAWYQQKPGKAPKLLIYAASSLQSGVPSRFSGSGSGTDFTLTISSLQPEDFATYYCQQANSFPITFGQGTRLEIKR
notes: also called recombinant Fab of 9A2

Source: US20190062438A1 (CSL, published 2019)
